Source: the DeepSol protein solubility set

Test: soluble on expression in E. coli; label from the status in PepcDB or PDB records

| Sequence | soluble on expression in E. coli |
| --- | --- |
| MGSDKIHHHHHHMRKRRVYWTLFITAFAWLASCSDDDINGSSGFNPNQPIEITEFYPDSGGIATPMIIEGRNFGTDTTGMKVYFEDVDGIRHPAGLVSSNGSRIYAFVPKGLTFKREMNILVERRTPDGQEYIGKAPDQFLYKTQTSVSTVAGLASPDNNINTVGGDLATCTFSSPFYLCIDGEDNIFVVDRKGDSGKDKQPNTTCRNEKGEGVNGNISMISIASNSSIVLKYGTAYINAPAYSDEKDAEAVYIPDDAGMKYYDMQKLLNYVPRYRTVLKSEELSTVDENNWKHCFVINKLDHMIYTVMWKGQLVRINPKNRTAEILLKKISNVATGDGGKAGSDSYIAFSPIKGEENVLYVSLADFHQIWRVDVSKITPEDKDTYNGESYAGKAIYEGVMNGKGWEDGLLKNAKFRHPRQICFTDDGKMYIADSGNSCIRVIDTTMPKERAAVTTPIGLPGAEGYKDGGPEIAKFHFPCGVAVNSDGTIVYVADTQNKVIRKLSIE | not soluble |
| HMSVILDTKGEPVSNAADAYYLVPVSHGEGGLALAKVGNEAEPKAVVLDPHHRPGLTVRFETPLAIAIITESFFLNIKFVPSSSDSEVWDVSKQYPIGLAVKVTDTKSFVGPFRVEKEGEGYKIVYYPDRGQTGLDIGLVHRNDKYYLAATEGEPFVFKIRKATYE | soluble |
| MKGKNNMSRIIVVTSGKGGVGKTTSSAAIASGLALRGKKTAVIDFDIGLRNLDLIMGCERRVVYDFVNVINGEATLNQALIKDKRNENLFILPASQTRDKDALTKDGVQRVLNDLKEMGFDFIICDSPAGIEQGALMALYYADEAIVTTNPEVSSVRDSDRILGILDSKSMRAEQGQAPIKQHLLLTRYNPARVTQGEMLSVQDVEEILHVPLLGVIPESQAVLNASNKGVPVIFDDQSDAGQAYQDTVARLLGEQVEFRFLTEAKKGIFKRLFGG | not soluble |
| MGSDKIHHHHHHCQNHVETMSITNNDAYLLQQTALSSSLGYDIVESLTVEVGPRLAGSPKDIIAVNWAMDKLTHLGFDRVYKEPVQVPIWERGEAKAKITFPVEQPLVITALGGSVATPTTGIQAKIIRFDSLEALKQANPEDVKGRIAFIDQKTERHITGEGYGKSVGGRSKGAVAAAEKGAVAIIIRSIGTDHDRMAHTGVMRYQDGVPKIPAAAMSNPDADLVTAMLRRDPNAILELQMSPKNSGFNTSYNVIAEVTGSSKPNEIVLIGAHLDSWDEGTGAIDDGAGVAIVTAAAKHIQDLPIKPARTVRVVLYAAEEIGLMGGKAYAEAHKAELPLHYIAAESDFGAGRIYQIDTKVNEGVFTKVQNILKPMTLNGVTLGSNQASAGPDISMLPAQGVPVASLRQDGRDYFDYHHTPNDTLDKIDPAALAQNVAAYAQFAYLMANSNIVLTPLASEIK | not soluble |
| MGHHHHHHSHMEYSYIPSFALYNNADMFQFFPRNKRLSTHQKSCLDEHARKMAVFMMKRQEEYRYYENLANQEQFSDDAHFSDNGMDSGFCSGATSTGQSASTSPAPVQLIPNPFFDPEAKTQSPVKLVDNPELFMESKKKSARISA | not soluble |
| MGHHHHHHSHSKEITVRGHNCPKPVLNFYEANFPANVMDVIARQNFTEPTAIQAQGWPVALSGLDMVGVAQTGSGKTLSYLLPAIVHINHQPFLERGDGPICLVLAPTRELAQQVQQVAAEYCRACRLKSTCIYGGAPKGPQIRDLERGVEICIATPGRLIDFLECGKTNLRRTTYLVLDEADRMLDMGFEPQIRKIVDQIRPDRQTLMWSATWPKEVRQLAEDFLKDYIHINIGALELSANHNILQIVDVCHDVEKDEKLIRLMEEIMSEKENKTIVFVETKRRCDELTRKMRRDGWPAMGIHGDKSQQERDWVLNEFKHGKAPILIATDVASRGLDVEDVKFVINYDYPNSSEDYIHRIGRTARSTKTGTAYTFFTPNNIKQVSDLISVLR | not soluble |
| MGSDKIHHHHHHVHKSLSNAFEGFSFSGDITTDVLGLLHHHGRQDVAKHVLAVAKTAQRLAPIYDVDSEAAYSAGLLHDISLIFSTSQMLQTALDLGLEPVTAEKRVPYLLHGKLSAAMAEIVFGVKNDSLVHAVSCHTTLCARATTLDKVVFLADKMSWDQEYSPFKPELETALEKSLDEAVGVFLTWTWKQKEKLNSIHPWLIDAWKDYKVGDYA | not soluble |
| REEYYVWDKEASINFIKPGQSDLFAEFEITDGMLDEIYQMTRNGEKCFPEFITHVKDKQGNVVSEVQRKLYVRKKPQYREEEAVTEVP | not soluble |
| AGGGYWHTSGREILDANNVPVRIAGINWFGFETCNYVVHGLWSRDYRSMLDQIKSLGYNTIRLPYSDDILKPGTMPNSINFYQMNQDLQGLTSLQVMDKIVAYAGQIGLRIILDRHRPDCSGQSALWYTSSVSEATWISDLQALAQRYKGNPTVVGFDLHNEPHDPACWGCGDPSIDWRLAAERAGNAVLSVNPNLLIFVEGVQSYNGDSYWWGGNLQGAGQYPVVLNVPNRLVYSAHDYATSVGPQTWFSDPTFPNNMPGIWNKNWGYLFNQNIAPVWLGEFGTTLQSTTDQTWLKTLVQYLRPTAQYGADSFQWTFWSWNPDSGDTGGILKDDWQTVDTDKDGYLAPIKSSIFDPV | soluble |
| SPNPPKLTKQMNAIIDTVINYKDSSGRQLSEVFIQLPSRKELPEYYELIRKPVDFKKIKERIRNHKYRSLGDLEKDVMLLCHNAQTFNLEGSQIYEDSIVLQSVFKSARQ | soluble |
| MAHHHHHHMCSVLILASTCRRRFSNVHLTPAGTVLNSNSALISRRINRRKMKNCNNNDLLKVLKMETTYNELPAHNLLMSSKNDINKLFDYINKNEELSKLMNSCGTYVYLKYLGVVIFSIKENVQISHLSEFIQYLLNKNVFGSSTFTKIRKSKDSDTYNAPFIICLVLIVRVCLSPFLNNILYCHMQNEIITFIIFKPTKKSVHCFFSFFTILL | soluble |
| MKKGILIILLVLMVLSCGTSKKVTLPDKDIKIENETVFFKNEKYTGKINLKDKNSVSGFITFKDGHLDGPTELKNDKKQMYTKFNIVNNQFEGETVVKNADQGINMTVNYNNGKIVKLLGDYSKTVKYDITFVDGLANGWFESEGEKFVFSDGVLTLEEDGITTEVKYYVNQETGDMGMEFFINGKSAGRDEKPNKVFGMEYFRIIAISSILEENSKGKDK | not soluble |
| MSKIDFHTHYLPTSYVEALKRHVPGDPDGWPTPEWTPQLTLNFMRDNDISYSILSLSSPHVNFGDKAETIRLVEAANDDGKSLAQQYPDQLGYLASLPIPYELDAVKTVQQALDQDGALGVTVPTNSRGLYFGSPVLERVYQELDARQAIVALHPNEPAILPKNVDIDLPVPLLGFFMDTTMTFINMLKYHFFEKYPNIKVIIPHAGAFLGIVDDRIAQYAQKVYQVDVYDVMHHVYFDVAGAVLPRQLPTLMSLAQPEHLLYGSDIPYTPLDGSRQLGHALATTDLLTNEQKQAIFYDNAHRLLTELEHHHHHH | soluble |
| MSLDSLNLNKHISGQFNAELESIRTQVMTMGGMVEQQLSDAITAMHNQDSELAKRVVEGDHQVNMMEVAIDEACVRIIAKRQPTASDLRLVMAIIKTIAELERIGDVADKICRTALEKFSQQHQPLLVSLESLGRHTVQMLHDVLDAFARMDLDEAVRIYREDKKVDQEYEGIVRQLMTYMMEDSRTIPSVLTALFCARSIERIGDRCQNICEYIFYFVKGQDFRHVGGDELDKLLAGKDPKEGHHHHHH | soluble |
| MSLNKVRLGIIGLGAQGGTYAGFINDNKIANLELGAICDIDPEKRTVAAEKYPNVPFYDNYIDMLESGDVDAIVTTVPHYLHTEIGKEALSRDIHALLEKPGDIYAEKVKEISDLAASKPNLTFGIFFNQRTNPLYQKVKSLIDNGEIGEIRRTNWIITTWWRPQAYYDQSSWRATWSGEGGGVLVNQAPHQIDLLQWLCGLPKKVYANVKYGYQRDLNVDDDVTTVLDYGNGATGVFITCTHDIIGTDRLEITGDKGKILVEDSKKITLKSLNQSETQMNQDMTWEEVAELFKGNGMGDIYKEETFEFESVWGQQHISVLENFTANILDGTPLIAPGSDGINEGHHHHHH | soluble |
| MTAAQGNSNETLFSSYKMGRFDLSHRVVLAPMTRCRALNGVPNAALAEYYAQRTTPGGFLISEGTMVSPGSAGFPHVPGIYSDEQVEAWKQVVEAVHAKGGFIFCQLWHVGRASHAVYQPNGGSPISSTNKPISENRWRVLLPDGSHVKYPKPRALEASEIPRVVEDYCLSALNAIRAGFDGIEIHGAHGYLIDQFLKDGINDRTDQYGGSIANRCRFLKQVVEGVVSAIGASKVGVRVSPAIDHLDATDSDPLSLGLAVVGMLNKLQGVNGSKLAYLHVTQPRYHAYGQTESGRQGSDEEEAKLMKSLRMAYNGTFMSSGGFNKELGMQAVQQGDADLVSYGRLFIANPDLVSRFKIDGELNKYNRKTFYTQDPVVGYTDYPFLAPFSRL | soluble |
| GSHMSDGLPNKKRKRRVLFTKAQTYELERRFRQQRYLSAPEREHLTSLIRLTPTQVKIWFQNHRYKTKRAQNEKGYEGHP | soluble |
| MSLKHLIKNYVQKLIKTELDAIQSKSVHDNRNFIYNGEFLILESEFGLHCFPRVQLNHALSYKNPNFDLGMRHWIVNHCKHDTTYIDIGANVGTFCGIAARHITQGKIIAIEPLTEMENSIRMNVQLNNPLVEFHHFGCAIGENEGENIFEVYEFDNRVSSLYFQKNTDIADKVKNSQVLVRKLSSLDISPTNSVVIKIDAEGAEIEILNQIYEFTEKHNGIEYYICFEFAMGHIQRSNRTFDEIFNIINSKFGSKAYFIHPLSSAEHPEFNKATQDINGNICFKYVSEGHHHHHH | soluble |
| MIYLFTGNMGTGKTSRVVSMILNNEDGLFKMKLEDGTEVDRPLYFCHIDGLDKRQFKAHELTEEQIMSAPLRDVIPEGAVLIVDEAHYTYPVRAAGRPVPPYIQELTELRHHGHTVILMTQHPSQLDIFVRNLVSKHVHLERKAIGMKQYYWYKCVTSLDNPAGVSGVEVASWKPPKEAFKYYKSASQHQ | not soluble |
| MADKLFSIRNYFFLGSYQSCIGEALKFSSKNEEEKQEKDVYLYRSYIAQGQAFIPLKEIPAATKSADLAAVRRYAEFRNNPAAKKKILAEVQEEVASRNIKSEIAAVLAATILNEADLSQDAFRAVSRFEGLEARASKVFILIKMNKRKLAIGEVKKMNQIDEDATLSQLANALVTSFGASGKVKDALYIYSEMSDKYGRTTDLEMHQAVVSILTQDYAAAEELLESALERDNKDADVLINSIVSAQLNEKDDDVVERFISQLKHEHPNHPWVIDFNEKEAEFDRVASDSRA | not soluble |
| MGSDKIHHHHHHMNTANPEQALAMSQAKLLCDTMSTLAESPVWDERRQVLFWCDILGKTVRSAALEPGQYREWPFPHTVSSLGLRENGDLVVACGMDIVILDPDSGRTRLLHSIPAPEGIPCRLNDGRVGPDGAFWVGTMHNVPLSEMKPYGELWRITATSAKRMQTGLTCPNGLAFSPDGSIMWQSDSVQKWIRRRNFYRVNGLFDEGVLVAQMTEETGRPDGGCLDSSGTYYSAGVSAGMLNVFAEDGGKQTAAIKMPVPHPTMPCFGGPDFSTLFVTSHRHNMSAERLEQAPFSGGVWMIPTQTKGFAPFRFEG | not soluble |
| MGSDKIHHHHHHAQYNKVYADITANMLVDMGFENVIWSEDEKERVYVLENTPWRLQGVGLAHAIDRIQKTGLPEKGKSCRIVVLDNNIPQISLIYTANPDSLKAAPGSYAARSAWDATYDLGDSWDKVKKEYRMNSSLFKVDVVVYPELYLKNLIITQIYQVLFNLSPAIEVSFWNGMKLTAQMVFPIYNDGYGPWAGKIHPGMVTLSQSFRLPYRTFARASIGLFNADRYGVDLAVTHHLKDERFSLEGRIGCTGTGSWQKFEYHYGTHQRVTWSLGGSFYWPKYNTQVSLKAEQYLLGEIGGRIDLIRHFRYCSIGFYAMKAQGALKNGGFRFQVALPPYKYKRKNVRVLPSDNWGMSYNAGNERYYYKGYKASPNDNIMQQNQFNPYFIKSELLNF | not soluble |
